# Laboratory results published in PMC12259648 (Frontiers in Immunology, 2025).
# T1: Phl p 5.0101 (timothy grass)
# T1 construct: Phl p 5.0101, major group 5 pollen allergen of timothy grass; The SPR methods say only 'Phl p 5 antigen'; also called major timothy grass pollen allergen Phl p 5; group 5 allergen; source: bought: Biomay, Vienna, Austria
# T1 chain: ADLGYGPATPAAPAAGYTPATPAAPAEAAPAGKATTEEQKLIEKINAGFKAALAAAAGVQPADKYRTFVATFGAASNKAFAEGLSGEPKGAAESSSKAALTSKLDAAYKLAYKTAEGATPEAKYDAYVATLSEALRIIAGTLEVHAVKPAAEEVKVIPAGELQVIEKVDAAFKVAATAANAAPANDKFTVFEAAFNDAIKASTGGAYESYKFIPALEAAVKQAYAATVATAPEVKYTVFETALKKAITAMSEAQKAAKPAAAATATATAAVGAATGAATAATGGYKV
# Molecular target: T1, Phl p 5.0101
# Assay: SPR; Biacore 1K+; purified IgG captured (about 100 RU) on anti-human IgG (Fc) on a CM5 chip; Phl p 5 injected at 1.875-60 nM, 25 uL/min, 120 s, 1360 s dissociation; PBS with 0.02% Tween 20; 1:1 Langmuir model
# Settings: both partners purified
Binder,Kd [nM],koff [s⁻¹],kon [M⁻¹ s⁻¹]
"212579 E38HS, G62HS (antibody, V domains shown, numbers count on: IMGT numbering; as the VL of m2; IgG1, kappa; also called E38HS G62HS substituted antibody; source: Expi293F, transfected, purified (Protein A magnetic beads)) VH: EVQLVESGGGLVQPGGSLRLSCAASGFTFSSYSMTWVRQAPGKGLEWISYISSSSSTIYYADSVKGRFTISRDNAKNSLYLQMNSLRAEDTAVYYCARDLRWGVMDNYYYHGMDVWGQGTTVTVSS VL: EIVLTQSPGTLSLSPGERATLSCRASQSISSSYLTWYQQKPGQAPRLLIYGASSRATGIPDRFSGSGSGTDFTLTISRLEPEDFAVYYCQQYVSSLITFGQGTRLEIK",19.6,0.00262,130000
"inferred unmutated common ancestor (UCA) of antibody 212579 (antibody, V domains shown, equals the inferred UCA heavy chain variable domain (GenBank PV255645, PV255646 for the two chains); numbers count on: IMGT numbering; equals the inferred UCA light chain variable domain (GenBank PV255645, PV255646 for the two chains); IgG1, kappa; also called inferred UCA; source: Expi293F, transfected, purified (Protein A magnetic beads)) VH: EVQLVESGGGLVQPGGSLRLSCAASGFTFSSYEMNWVRQAPGKGLEWVSYISSSGSTIYYADSVKGRFTISRDNAKNSLYLQMNSLRAEDTAVYYCARDLRWGVMDNYYYYGMDVWGQGTTVTVSS VL: not shown",8.5,0.00051,60000
